# Literature values as cited in paper PMC3906610.
# pKd: −log10 of the molar value.
# Molecular target: PagP (Escherichia coli) (UniProt P37001)
# Sequence of UniProt P37001 (P37001 26-186): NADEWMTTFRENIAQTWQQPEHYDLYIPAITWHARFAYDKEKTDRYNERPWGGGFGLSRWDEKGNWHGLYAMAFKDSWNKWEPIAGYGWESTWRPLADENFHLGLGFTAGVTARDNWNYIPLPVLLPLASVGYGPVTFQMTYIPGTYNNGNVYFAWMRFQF
substance,measurement,value
Skp (from UniProt P0AEU7),pKd,7.93
